From IntAct's records for PubMed 22913516

Target: kcc2b_mouse Camk2b (UniProt P28652)
Sequence (P28652 whole entry): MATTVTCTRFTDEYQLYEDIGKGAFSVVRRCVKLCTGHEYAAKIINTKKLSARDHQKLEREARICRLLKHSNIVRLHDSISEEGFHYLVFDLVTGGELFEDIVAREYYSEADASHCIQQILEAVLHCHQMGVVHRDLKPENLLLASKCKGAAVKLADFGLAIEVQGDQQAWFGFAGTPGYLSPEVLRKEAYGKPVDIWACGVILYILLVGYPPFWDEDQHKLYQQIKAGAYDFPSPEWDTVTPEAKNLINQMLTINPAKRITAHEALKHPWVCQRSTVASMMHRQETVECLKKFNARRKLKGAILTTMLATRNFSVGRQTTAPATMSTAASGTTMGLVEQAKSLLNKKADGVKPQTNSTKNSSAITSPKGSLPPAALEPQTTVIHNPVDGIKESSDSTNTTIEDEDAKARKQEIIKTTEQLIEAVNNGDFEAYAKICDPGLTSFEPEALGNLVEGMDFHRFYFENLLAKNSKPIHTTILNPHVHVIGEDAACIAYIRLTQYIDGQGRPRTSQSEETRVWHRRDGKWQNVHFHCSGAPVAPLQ

Ryanodine receptor 1 (Oryctolagus cuniculus (Rabbit)), P11716 S2843A
effect of a mutation on the interaction: decreasing interaction
